Test [1] addresses SbtB ΔT-loop (T-loop Arg43-Ser52 truncation variant of SbtB) (Synechocystis sp. PCC 6803). In words: cryo-EM structure.
Test [2] concerns the target sodium-dependent bicarbonate transporter SbtA (Synechocystis sp. PCC 6803). As to the kind of experiment: cryo-EM structure.

The substance “SbtB ΔT-loop (T-loop Arg43-Ser52 truncation variant of SbtB) (natural protein)” returned a stoichiometry N in test [1] of 3.

In test [2], “sodium-dependent bicarbonate transporter SbtA (natural protein)” registered a stoichiometry N of 3.

The values above are taken from paper doi:10.1101/2023.08.10.552651.
